Source: the supplement of paper PMC9170038

Test system: MS2 coat protein
Assay: apparent KD of MS2 coat protein; designed switch direction (-1 OFF switch, 1 ON switch): -1; higher = weaker reporter binding
Method in brief: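 Three titration conditions were used: no input, 200 uM small-molecule ligand, and an oligonucleotide input. In each, SNAP-549-labelled MS2 coat protein was raised from 0.7 or 1.5 nM, doubling, to 3 µM over designed RNA switches transcribed on Illumina chips by stalled E. coli RNA polymerase. Curve fits of normalised cluster fluorescence gave values whose per-design median over clusters is the apparent KD.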

[1] = Eterna round: R95, input ligand: microRNA oligo, concentration not stated
[2] = input ligand: microRNA oligo, concentration not stated
[3] = Eterna round: R95, input ligand: FMN 200 uM
[4] = Eterna round: R95, input ligand: none

In the case of “GUGAUCUAUCAUGGGAUAAACAUGAGGAUCACCCAUGUAGACAAGUUUUUUGCUCGUCUUAUAAUAAGAUAGAUCAC [Antenna 1 - Jieux - Sensor, turn-off variant 1] (Eterna round: R97, puzzle: Sensor, turn-off variant 1)”, the “apparent KD of MS2 coat protein” value (input ligand: FMN 200 uM) is reported as 37.2 nM and the “apparent KD of MS2 coat protein” value (input ligand: none) is reported as 39.4 nM.
For “GUGCAAUGAGGAUAUACGUAGGUGAAAAUCUGUGUGCUCCUACAUGAGGAUCACCCAUGUAGAAGGCAUGUCAC [LRO-Excl2-16] (puzzle: Exclusion 2)”, the “apparent KD of MS2 coat protein” value [1] was 16 nM.
With “GUGCAGCGAGGAUAUCCAGACGGGUCCAGUACGUGUCUUGGACUUGAGGAUCACCCAAGUAGAAGGCGUCUCAG [salish99_ex2_r4_611] (Eterna round: R97, puzzle: Exclusion 2)” the “apparent KD of MS2 coat protein” value (input ligand: FMN 200 uM) was 50.9 nM and the “apparent KD of MS2 coat protein” value (input ligand: none) was 114 nM.
For “GUGCCGCGAGGAUAUACAGACGGGUCCAUUACGUGUCUCGGACUUGAGGAUCACCCAAGUAGAAGGCGUCUCAG [salish99_ex2_r4_625] (Eterna round: R97, puzzle: Exclusion 2)”, the “apparent KD of MS2 coat protein” value (input ligand: FMN 200 uM) was 51.3 nM and the “apparent KD of MS2 coat protein” value (input ligand: none) was 40.2 nM.
In the case of “GUGGCACAUGAGGAUCACCCAUGUCAGGAUAUCGCGUGGUUUUUUUCGGCCGCGCGCGCGAGAAGGGACGUCUU (Eterna round: R96, puzzle: Exclusion 1)”, the “apparent KD of MS2 coat protein” value (input ligand: FMN 200 uM) is reported as 26.8 nM, the “apparent KD of MS2 coat protein” value [2] is reported as 22.2 nM and the “apparent KD of MS2 coat protein” value (input ligand: none) is reported as 30.9 nM.
For “GUGGCACAUGAGGAUCACCCAUGUCAGGAUAUCGCGUGGUUUUUUUCGGCCGCGCGCGCGAGAAGGGACGUCUU (puzzle: Exclusion 1)”, the “apparent KD of MS2 coat protein” value [1] was 27.2 nM.
“GUGGGUUACAUGAGGAUCACCCAUGUAUAGUGGGAAAAAAUAUAGGAUAUAAUAUAAAAAUUAUAUUAGAAGGAUAGAGACUAG [AK ExNG3-1] (Eterna round: R96, puzzle: Exclusion NG 3)” was tested, and the “apparent KD of MS2 coat protein” value (input ligand: FMN 200 uM) was 419 nM, the “apparent KD of MS2 coat protein” value [2] was 216 nM and the “apparent KD of MS2 coat protein” value (input ligand: none) was 418 nM.
In the case of “GUGGUACAUGAGGAUCACCCAUGUUAGGAUAUCGCGUGAGGUUUUACUUCCGCACACGCGAGAAGGGACGUCUU (puzzle: Exclusion 1)”, the “apparent KD of MS2 coat protein” value [1] is reported as 41.4 nM.
With “GUGGUACAUGAGGAUCACCCAUGUUAGGAUAUCGCGUGAGGUUUUGCUUCCGCGCGCGCGAGAAGGGACGUCUU (puzzle: Exclusion 1)” the “apparent KD of MS2 coat protein” value [1] was 23.2 nM.
With “GUGUAAUGUGAGGAUAUGUGUUUCGUUAGCUGCACAGAAGGCACAACAUGAGGAUCACCCAUGUGGGCAGGGCC [Eternabot (L1) Solution 10] (Eterna round: R97, puzzle: Exclusion 6)” the “apparent KD of MS2 coat protein” value (input ligand: FMN 200 uM) was 59.4 nM and the “apparent KD of MS2 coat protein” value (input ligand: none) was 19 nM.
With “GUGUACAGAGGAUAUGCACGAGUAGUUACGAAAGUAACUAUACAUGAGGAUCACCCAUGUAGAAGGCUGUACAC [Dot plot directed v3] (puzzle: Exclusion 2)” the “apparent KD of MS2 coat protein” value [1] was 12.2 nM.
“GUGUAGUAAGGAUAUACAUGAGGAUCACCCAUGUGAGUAAGAUAGAAUAAGAUAAAGUGUAGAAGGUAUAGUGU [Excluse me!!! 16 - Jieux - Exclusion 3] (puzzle: Exclusion 3)” was tested, and the “apparent KD of MS2 coat protein” value [3] was 42.6 nM, the “apparent KD of MS2 coat protein” value [1] was 42.8 nM and the “apparent KD of MS2 coat protein” value [4] was 48.9 nM.
With “GUGUAGUCAGGAUAUACAUAGGAAGAUAAUAUAAUAUAAGUACAUGAGGAUCACCCAUGUAGAAGGGACAGUGU [Excluse me!! 9 - Jieux - Exclusion 2] (puzzle: Exclusion 2)” the “apparent KD of MS2 coat protein” value [1] was 35.6 nM.
“GUGUGCAGAGGAUAUACAGAGGAAAAUAAUAAAUAAUAUUGACAUGAGGAUCACCCAUGUAGAAGGCUGAGUGU [Excluse me!! 25 - Jieux - Exclusion 2] (puzzle: Exclusion 2)” was tested, and the “apparent KD of MS2 coat protein” value [3] was 38.3 nM, the “apparent KD of MS2 coat protein” value [1] was 37.4 nM and the “apparent KD of MS2 coat protein” value [4] was 39.7 nM.
With “GUGUUGGUAGGAUAUCCACCGACAAACAUGAGGAUCACCCAUGUGACGCUCCCUUGUCUUGGAGAAGGGCCGGCAU [Riritequla] (puzzle: Exclusion 5)” the “apparent KD of MS2 coat protein” value [1] was 42.4 nM.
For “GUUAAACAUGAGGAUCACCCAUGUAAGGAUAUGCUGCGGUAGAGAUGAAGUGAAUGCAGCAGAAGGUACAAUUG [Mat - Mod of JL D54] (puzzle: Exclusion 1)”, the “apparent KD of MS2 coat protein” value [1] was 80.5 nM.
For “GUUAAACAUGAGGAUCACCCAUGUAAGGAUAUGCUGCGGUCGCGCUGACGUGACUGCAGCAGAAGGUACAAAUG [Mat - Mod of JL D57] (puzzle: Exclusion 1)”, the “apparent KD of MS2 coat protein” value [1] was 76.4 nM.
With “GUUAAGGUAGGAUAUACGAUAAUAUAGGGUAGAGAUAUAACACAUGAGGAUCACCCAUGUAGAAGGACCAAUUG [Mat - Exclusion 2 - Mod of my Tesla design - D55] (puzzle: Exclusion 2)” the “apparent KD of MS2 coat protein” value [1] was 26.2 nM.
“GUUAAUUGUCACAUGGGUGACAUGAGGAUCACCCAUGUCACAAGCUUUUUGUUCGUCUUAUAAUUAACCCAUGUGAC [Stov1/12-B2] (Eterna round: R97, puzzle: Sensor, turn-off variant 1)” was tested, and the “apparent KD of MS2 coat protein” value (input ligand: FMN 200 uM) was 16 nM and the “apparent KD of MS2 coat protein” value (input ligand: none) was 14.4 nM.
With “GUUAGACAUGAGGAUCACCCAUGUGAGGAUAUGAUGAGAAUGAAGUAAGAAGUAGGAAUCAGAAGGCACAUAUG [Mat - Mod of Hyphema D31] (puzzle: Exclusion 1)” the “apparent KD of MS2 coat protein” value [3] was 177 nM, the “apparent KD of MS2 coat protein” value [1] was 106 nM and the “apparent KD of MS2 coat protein” value [4] was 132 nM.
“GUUUUAUAUGAAGGAUAUACUUAACAUGAGGAUCACCCAUGUGGUGUUGUGAGUGAGUGAGUUUAGUAGAAGGUCAAUGAUUUU [JMF's solution 77] (Eterna round: R96, puzzle: Exclusion NG 2)” was tested, and the “apparent KD of MS2 coat protein” value (input ligand: FMN 200 uM) was 1660 nM, the “apparent KD of MS2 coat protein” value [2] was 396 nM and the “apparent KD of MS2 coat protein” value (input ligand: none) was 473 nM.
For “UAAAACAGAGGAUAUCGCUUGGUAAACAUGAGGAUCACCCAUGUGGUCUCGGUGGAUACCCGAGAAGGCUGAGCGU [Xeraisbece] (Eterna round: R97, puzzle: Exclusion 5)”, the “apparent KD of MS2 coat protein” value (input ligand: FMN 200 uM) was 19.5 nM and the “apparent KD of MS2 coat protein” value (input ligand: none) was 19 nM.
“UAAAACUGAGGAUAUACAUGAGGAUCACCCAUGUCAAUUGACAGCGGCGUGGCAAAAGGUAGAAGGCAGGCGGU [Lerete] (puzzle: Exclusion 3)” was tested, and the “apparent KD of MS2 coat protein” value [3] was 43 nM, the “apparent KD of MS2 coat protein” value [1] was 176 nM and the “apparent KD of MS2 coat protein” value [4] was 161 nM.
“UAAAAGGUAGGAUAUACGAAAAAAAAGGGUAGAAAAAAAACACAUGAGGAUCACCCAUGUAGAAGGACCAAAAA [salish99_ex2_r3_049] (puzzle: Exclusion 2)” was tested, and the “apparent KD of MS2 coat protein” value [3] was 137 nM, the “apparent KD of MS2 coat protein” value [1] was 38.4 nM and the “apparent KD of MS2 coat protein” value [4] was 38 nM.
For “UAAACAAGCUUAAGAUCCUACAUGAGGAUCACCCAUGUGCUCGUCUUGUAACGUACUGUGACGAAAGUCACGGUACG [JL TOV1 3.09] (Eterna round: R97, puzzle: Sensor, turn-off variant 1)”, the “apparent KD of MS2 coat protein” value (input ligand: FMN 200 uM) was 185 nM and the “apparent KD of MS2 coat protein” value (input ligand: none) was 228 nM.
With “UAAAGUCAAGGAUAUGGAAGUCCAAACAUGAGGAUCACCCAUGUAAACACAUUGGGAAGCCCAGAAGGUGGCCGUA [Eternabot (L2) Solution 31] (Eterna round: R97, puzzle: Exclusion 5)” the “apparent KD of MS2 coat protein” value (input ligand: FMN 200 uM) was 76.4 nM and the “apparent KD of MS2 coat protein” value (input ligand: none) was 204 nM.
With “UAACAGUAAGGAUAUCCAGAUCCAGACAUGAGGAUCACCCAUGUCAAAUACCUUUGACACGGAGAAGGUACGAAAA [EX5 A.26] (Eterna round: R97, puzzle: Exclusion 5)” the “apparent KD of MS2 coat protein” value (input ligand: FMN 200 uM) was 53.2 nM and the “apparent KD of MS2 coat protein” value (input ligand: none) was 51.9 nM.
For “UAACUACAUGAGGAUCACCCAUGUCAGGAUAUGCCAUUAAAUUAACAUCAACAUACGGGUAGAAGGGACAACGU [1st #2] (Eterna round: R97, puzzle: Exclusion 1)”, the “apparent KD of MS2 coat protein” value (input ligand: FMN 200 uM) was 22.2 nM and the “apparent KD of MS2 coat protein” value (input ligand: none) was 25.6 nM.
For “UAACUUCUUGUAAGGAUAUUGGCGCGAAAGCGAACCGAGAAGGUACAUGAGGAUCACCCAUGUGAAAUAAGAAU [Mod of Zala 14 - Jieux - Brourd's Mod of Exclusion 4] (Eterna round: R97, puzzle: Brourd's mod of Exclusion 4)”, the “apparent KD of MS2 coat protein” value (input ligand: FMN 200 uM) was 574 nM and the “apparent KD of MS2 coat protein” value (input ligand: none) was 40.3 nM.
For “UAAUAGGCAGGAUAUACAUGAGGAUCACCCAUGUAAAUUUUUCGUUUAACUUGAAUGUGUAGAAGGGCCAUAAA [Ex3 #53] (Eterna round: R97, puzzle: Exclusion 3)”, the “apparent KD of MS2 coat protein” value (input ligand: FMN 200 uM) was 20.6 nM and the “apparent KD of MS2 coat protein” value (input ligand: none) was 22.6 nM.
With “UAAUGUAUAUAGGAUAUCUAGCUGGAAACAGCUAGAGAAGGAUGUACAUGAGGAUCACCCAUGUAAAUCAGUGA [Ex6/14-B1] (Eterna round: R97, puzzle: Exclusion 6)” the “apparent KD of MS2 coat protein” value (input ligand: FMN 200 uM) was 239 nM and the “apparent KD of MS2 coat protein” value (input ligand: none) was 55.4 nM.
In the case of “UAAUUAAGUGUGAGGAUAUGCUGGUCCUUGGAUCAGCAGAAGGCACAUGAGGAUCACCCAUGUAAUUUAUUUAU [JL bmx4 3.10] (puzzle: Brourd's mod of Exclusion 4)”, the “apparent KD of MS2 coat protein” value [1] is reported as 78.5 nM.
For “UACAAGCUUUUAAGAUCCUACAUGAGGAUCACCCAUGUGCUCGUCUUGUAACGUACUGUGACGAAAGUCACGGUACG [JL TOV1 3.22] (Eterna round: R97, puzzle: Sensor, turn-off variant 1)”, the “apparent KD of MS2 coat protein” value (input ligand: FMN 200 uM) was 206 nM and the “apparent KD of MS2 coat protein” value (input ligand: none) was 220 nM.
For “UACAAUGCUUUUGUAAGGUACAUGAGGAUCACCCAUGUCUCGCAAAGGCUUGAUUAUCACGUACGCGCUUGUCUUGU [Eternabot (L1) Solution 17] (Eterna round: R97, puzzle: Sensor, turn-off variant 1)”, the “apparent KD of MS2 coat protein” value (input ligand: FMN 200 uM) was 14.3 nM and the “apparent KD of MS2 coat protein” value (input ligand: none) was 12.2 nM.
With “UACACUGCAUGAGGAUCAAACAUGAGGAUCACCCAUGUAUAGCAGGCUUUUUGUACGUCUUAUAAUUAUGUAGUGUA [Electric Eye 16 - Jieux - Sensor, turn-off variant 1] (Eterna round: R97, puzzle: Sensor, turn-off variant 1)” the “apparent KD of MS2 coat protein” value (input ligand: FMN 200 uM) was 15.9 nM.
“UACACUGCAUGAGGAUCAAACAUGAGGAUCACCCAUGUAUAGCAGGCUUUUUGUGCGUCUUAUAAUUAUGUAGUGUA [Electric Eye 18 - Jieux - Sensor, turn-off variant 1] (Eterna round: R97, puzzle: Sensor, turn-off variant 1)” was tested, and the “apparent KD of MS2 coat protein” value (input ligand: FMN 200 uM) was 14.9 nM and the “apparent KD of MS2 coat protein” value (input ligand: none) was 15.3 nM.
